Experimental findings from patent US20090062514A1 are described below.

Several values for one entry are separate records, joined by “and”; a condition that tells them apart may be missing. Identical values can stand only once.

The target of the test is human IgG (Sigma 14506) (human). The test is described as follows: co-precipitation of human IgG with viral particles by centrifugation; SDS-PAGE of pellets and supernatants.

“recombinant viral particles displaying protein A on their surface (TVCV coat protein-protein A fusion, domains E and D of protein A)” displayed a binding capacity (mg IgG/mg of viral particles) of 2. Further, the CP-protein A fusion molecules per bound IgG molecule (scale: CP-protein A fusion molecules per IgG molecule) is 3 and 5.
